Measured values: article PMC4432644, “Molecular mechanism for USP7-mediated DNMT1 stabilization by acetylation” (Nature Communications, 2015)
Numbering of substitutions follows the chain as printed. In names and notes the source's numbering stands. One block for each binder: values may come before it.

Experiments:
Settings in all cases: both partners purified
[1] = biological target: T1, DNMT1^2KR (recombinant, residues 600–1,600) (human, UniProt P26358 600-1600, K1111 to Arginine | K1113 to Arginine); assay: pull-down; GST–USP7 proteins incubated with DNMT1 proteins 2 h at 4 °C in 25 mM HEPES pH 7.4, 150 mM NaCl, 5% glycerol, 0.05% Triton X-100, 1 mM DTT, then held on glutathione resin; SDS–PAGE, Coomassie
T1 construct: human DNMT1, residues 600-1,600 (DNMT1 if not specified); source: E. coli Rosetta (DE3), purified

[2] = biological target: T2, DNMT1^2KQ (recombinant, residues 600–1,600) (human, UniProt P26358 600-1600, K1111 to Glutamine | K1113 to Glutamine); assay: as above
T2 construct: human DNMT1, residues 600-1,600 (DNMT1 if not specified); source: E. coli Rosetta (DE3), purified

[3] = biological target: T3, DNMT1^4KR (recombinant, residues 600–1,600) (human, UniProt P26358 600-1600, K1111 to Arginine | K1113 to Arginine | K1115 to Arginine | K1117 to Arginine); assay: as above
T3 construct: human DNMT1, residues 600-1,600 (DNMT1 if not specified); source: E. coli Rosetta (DE3), purified

[4] = biological target: T4, DNMT1 (residues 600–1,600) (human, UniProt P26358 600-1600); assay: ITC; 0.05 mM DNMT1 (600–1,600) titrated with 0.5 mM USP7 (560–1,102); iTC200; 18 °C; 10 mM HEPES pH 8.0, 300 mM NaCl
T4 construct: human DNMT1, residues 600-1,600; Modified pET-28a plasmid; also called WT DNMT1 (residues 600–1,600); source: E. coli Rosetta (DE3), purified (Ni-NTA, on-column cleavage, anion exchange, SEC)

[5] = biological target: T4, DNMT1 (residues 600–1,600); assay: pull-down; GST–USP7 proteins incubated with DNMT1 proteins 2 h at 4 °C in 25 mM HEPES pH 7.4, 150 mM NaCl, 5% glycerol, 0.05% Triton X-100, 1 mM DTT, then held on glutathione resin; SDS–PAGE, Coomassie

T4 sequence (P26358 600-1600): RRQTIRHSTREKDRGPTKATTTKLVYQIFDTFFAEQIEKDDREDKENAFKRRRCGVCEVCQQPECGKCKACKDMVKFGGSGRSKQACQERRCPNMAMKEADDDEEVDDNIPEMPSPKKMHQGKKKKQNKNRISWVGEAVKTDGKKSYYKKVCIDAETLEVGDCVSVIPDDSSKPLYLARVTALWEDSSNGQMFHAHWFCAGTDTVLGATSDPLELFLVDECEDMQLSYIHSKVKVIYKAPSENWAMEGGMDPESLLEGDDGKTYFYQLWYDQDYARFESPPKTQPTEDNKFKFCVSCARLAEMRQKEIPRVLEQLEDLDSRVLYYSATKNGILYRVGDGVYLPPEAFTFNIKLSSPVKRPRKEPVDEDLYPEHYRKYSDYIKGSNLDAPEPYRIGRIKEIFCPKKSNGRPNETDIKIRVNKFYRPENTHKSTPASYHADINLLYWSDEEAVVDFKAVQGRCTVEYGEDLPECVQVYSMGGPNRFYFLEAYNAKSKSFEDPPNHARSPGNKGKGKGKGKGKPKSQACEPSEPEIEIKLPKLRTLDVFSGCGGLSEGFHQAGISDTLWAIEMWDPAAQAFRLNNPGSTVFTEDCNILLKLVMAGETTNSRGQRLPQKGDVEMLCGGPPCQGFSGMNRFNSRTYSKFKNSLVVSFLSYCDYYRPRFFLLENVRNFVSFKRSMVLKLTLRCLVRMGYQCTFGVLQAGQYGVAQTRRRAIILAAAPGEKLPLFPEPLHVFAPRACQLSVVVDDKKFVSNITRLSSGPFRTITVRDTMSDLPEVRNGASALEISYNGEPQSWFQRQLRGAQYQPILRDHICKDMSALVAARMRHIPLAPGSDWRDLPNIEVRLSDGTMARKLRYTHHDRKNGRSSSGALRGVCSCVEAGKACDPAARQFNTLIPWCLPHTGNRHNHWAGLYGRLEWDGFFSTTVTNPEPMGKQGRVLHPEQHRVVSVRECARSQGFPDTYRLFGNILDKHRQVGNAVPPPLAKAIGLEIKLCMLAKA
T3 sequence (P26358 other isoform, or with tags, fused parts or gaps with the stated changes): as the sequence (P26358 600-1600) above, with K512R, K514R, K516R, K518R counted along it
T2 sequence (P26358 other isoform, or with tags, fused parts or gaps with the stated changes): as the sequence (P26358 600-1600) above, with K512Q, K514Q counted along it
T1 sequence (P26358 other isoform, or with tags, fused parts or gaps with the stated changes): as the sequence (P26358 600-1600) above, with K512R, K514R counted along it

B1: GST–TUD^USP7 (tandem UBL domains of USP7, residues 560–1,102) (domain or fragment, human, UniProt Q93009 560-1102, looked up)
chain: EAHLYMQVQIVAEDQFCGHQGNDMYDEEKVKYTVFKVLKNSSLAEFVQSLSQTMGFPQDQIRLWPMQARSNGTKRPAMLDNEADGNKTMIELSDNENPWTIFLETVDPELAASGATLPKFDKDHDVMLFLKMYDPKTRSLNYCGHIYTPISCKIRDLLPVMCDRAGFIQDTSLILYEEVKPNLTERIQDYDVSLDKALDELMDGDIIVFQKDDPENDNSELPTAKEYFRDLYHRVDVIFCDKTIPNDPGFVVTLSNRMNYFQVAKTVAQRLNTDPMLLQFFKSQGYRDGPGNPLRHNYEGTLRDLLQFFKPRQPKKLYYQQLKMKITDFENRRSFKCIWLNSQFREEEITLYPDKHGCVRDLLEECKKAVELGEKASGKLRLLEIVSYKIIGVHQEDELLECLSPATSRTFRIEEIPLDQVDIDKENEMLVTVAHFHKEVFGTFGIPFLLRIHQGEHFREVMKRIQSLLDIQEKEFEKFKFAIVMMGRHQYINEDEYEVNLKDFEPQPGNMSHPRPWLGLDHFNKAPKRSRYTYLEKAIKIHN
notes: Modified pGEX-6P-1 plasmid; also called GST–USP7 (truncation); wild-type GST–TUD^USP7; source: E. coli BL21(DE3), purified
- binding result [1]: binds
- binding result [2]: binds
- binding result [3]: binds

B4: GST–TUD^USP7 E744A (domain or fragment, human, UniProt Q93009 560-1102, looked up)
chain: B1 chain with E185A
notes: also called E744A^USP7; source: E. coli BL21(DE3), purified
- binding result [5]: binds

Now from value to binder:

- Kd [4]: 600 nM
B2: USP7 (residues 560–1,102), tag removed (domain or fragment, human, UniProt Q93009 560-1102, looked up)
chain: B1 chain
notes: The methods name a modified pGEX-6P-1 plasmid but a Ni-NTA purification with on-column cleavage; also called TUD^USP7; source: E. coli BL21(DE3), purified (Ni-NTA, on-column cleavage, anion exchange, SEC)

- binding result [5]: binds
B3: GST–TUD^USP7 D762A (domain or fragment, human, UniProt Q93009 560-1102, looked up)
chain: B1 chain with D203A
notes: also called D762A^USP7; source: E. coli BL21(DE3), purified
